Assay results published in publication PMC8012802.
Blank lines part the entries; values can stand above or below the substance they belong to.

Columns and labels:
Experiment in all cases: SEC-MALS; MiniDAWN TREOS II with Superdex 200 10/300 increase, 20 mM Tris-HCl pH 8.0, 100 mM NaCl, 0.5 ml/min; monomer and 6-mer peaks
[1] = biological target: OrfG C-terminal subdomain (OrfG_(223–331): from Ala223 to Asp331) (Streptococcus thermophilus (ICESt3))
[2] = biological target: OrfG central domain (OrfG_(64–204): from Ser64 to Ala204) (Streptococcus thermophilus (ICESt3))
[3] = biological target: OrfG soluble domain (OrfG_(64–331): from Ser64 to Asp331) (Streptococcus thermophilus (ICESt3))

stoichiometry N [1]: 6
Substance: OrfG C-terminal subdomain (OrfG_(223–331): from Ala223 to Asp331) (domain or fragment)

stoichiometry N [2]: 6
Substance: OrfG central domain (OrfG_(64–204): from Ser64 to Ala204) (domain or fragment)

mass fraction of the 6-mer peak [3]: 2.7%
stoichiometry N [3]: 6
Substance: OrfG soluble domain (OrfG_(64–331): from Ser64 to Asp331) (domain or fragment)
